Test results from US20060140934A1 (Amgen, published 2006).

Legend:
myostatin = target: T1, myostatin (UniProt O14793 267-375, limits assumed); assay: cell-based or functional assay
T1 sequence (looked up): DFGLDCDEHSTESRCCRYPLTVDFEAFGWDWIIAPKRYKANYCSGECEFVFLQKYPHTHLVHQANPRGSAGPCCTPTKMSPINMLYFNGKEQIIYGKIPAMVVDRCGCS

FcRn = assay: Biacore FcRn binding
FcRn, sequence (chain, as listed by the source, chain 1 of 2): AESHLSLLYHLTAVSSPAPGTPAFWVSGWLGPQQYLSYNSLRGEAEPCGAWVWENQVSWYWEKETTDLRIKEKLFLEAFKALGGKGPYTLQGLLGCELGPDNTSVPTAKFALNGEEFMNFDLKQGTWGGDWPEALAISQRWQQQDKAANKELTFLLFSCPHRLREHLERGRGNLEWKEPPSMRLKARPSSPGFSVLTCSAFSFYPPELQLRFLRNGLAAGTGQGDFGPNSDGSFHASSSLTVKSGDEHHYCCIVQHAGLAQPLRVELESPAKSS
FcRn, sequence (chain, as listed by the source, chain 2 of 2): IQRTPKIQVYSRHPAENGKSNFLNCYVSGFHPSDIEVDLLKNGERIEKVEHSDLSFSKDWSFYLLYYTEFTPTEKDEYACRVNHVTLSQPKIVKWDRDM

B1: Fc-Loop TN8-19-7 construct with insertion at L139/T140 and asymmetric Gly4/Gly6 linkers (CH3 domain) (Fc fusion)
chain: MDKTHTCPPCPAPELLGGPSVFLFPPKPKDTLMISRTPEVTCVVVDVSHEDPEVKFNWYVDGVEVHNAKTKPREEQYNSTYRVVSVLTVLHQDWLNGKEYKCKVSNKALPAPIEKTISKAKGQPREPQVYTLPPSRDELGGGGLADHGQCIRWPWMCPPEGWEGGGGGGTKNQVSLTCLVKGFYPSDIAVEWESNGQPENNYKTTPPVLDSDGSFFLYSKLTVDKSRWQQGNVFSCSVMHEALHNHYTQKSLSLSPGK
For B1, the “IC50(nM), in vitro cell based myostatin inhibition assay (luciferase reporter, C2C12 pMARE-luc)” value (myostatin) was 0.873 nM.

B2: Fc-Loop TN8-19-7 construct with insertion at H49/E50 (CH2 domain) (Fc fusion, not shown: small tags and cut ends)
chain: MDKTHTCPPCPAPELLGGPSVFLFPPKPKDTLMISRTPEVTCVVVDVSHLADHGQCIRWPWMCPPEGWEEDPEVKFNWYVDGVEVHNAKTKPREEQYNSTYRVVSVLTVLHQDWLNGKEYKCKVSNKALPAPIEKTISKAKGQPREPQVYTLPPSRDELTKNQVSLTCLVKGFYPSDIAVEWESNGQPENNYKTTPPVLDSDGSFFLYSKLTVDKSRWQQGNVFSCSVMHEALHNHYTQKSLSLSPGK
Work on B2 yielded an EC50 (FcRn) of about 680 nM.

B3: Fc-Loop TN8-19-7 construct with insertion at Y77/N78 (CH2 domain) (Fc fusion, not shown: small tags and cut ends)
chain: MDKTHTCPPCPAPELLGGPSVFLFPPKPKDTLMISRTPEVTCVVVDVSHEDPEVKFNWYVDGVEVHNAKTKPREEQYLADHGQCIRWPWMCPPEGWENSTYRVVSVLTVLHQDWLNGKEYKCKVSNKALPAPIEKTISKAKGQPREPQVYTLPPSRDELTKNQVSLTCLVKGFYPSDIAVEWESNGQPENNYKTTPPVLDSDGSFFLYSKLTVDKSRWQQGNVFSCSVMHEALHNHYTQKSLSLSPGK
With B3 the EC50 (FcRn) was about 680 nM.

B4: Fc-loop TN8-19-07 (clone #6951) (Fc fusion)
chain: MDKTHTCPPCPAPELLGGPSVFLFPPKPKDTLMISRTPEVTCVVVDVSHEDPEVKFNWYVDGVEVHNAKTKPREEQYNSTYRVVSVLTVLHQDWLNGKEYKCKVSNKALPAPIEKTISKAKGQPREPQVYTLPPSRDELGGLADHGQCIRWPWMCPPEGWEGGTKNQVSLTCLVKGFYPSDIAVEWESNGQPENNYKTTPPVLDSDGSFFLYSKLTVDKSRWQQGNVFSCSVMHEALHNHYTQKSLSLSPGK
For B4, the “IC50(nM), in vitro cell based myostatin inhibition assay (luciferase reporter, C2C12 pMARE-luc)” value (myostatin) was 0.834 nM.
